These results are taken from article PMC3183031, “An α/β Hydrolase and Associated Per-ARNT-Sim Domain Comprise a Bipartite Sensing Module Coupled with Diverse Output Domains” (PLoS ONE, 2011).

The series concerns the molecule itself. The series is described as follows: SEC; Superose 12 10/300 GL, 4°C, 20 mM Tris-HCl pH 6.9, 100 mM NaCl, 0.1 mM EDTA; protein applied at 2.5 mg/ml; calibrated with standard proteins. In general terms: In gel filtration, larger molecules generally elute earlier.

B1: His-tagged wild type RsbP (natural protein, Bacillus subtilis, UniProt O07014 1-403, looked up)
chain: MDKQLNDAPCGFLALSEEGSIIAANRTLIKILDYEPEQVIGQHMNMMLTIPAQLFCQLYFFPLLKLEHHIEEIYISLKARDGEEIPVLINAIARHDSGASVFDCVLIPMRKRNEYENELLIARNEAQEALLAKQKANAELEIALETLKAKQEELLEINKQNQQFKLNTKRELELARKIQKNSLTEPIVNDQVQIDSYYNASSELSGDLYGYYQIDEHRYGIIILDVMGHGISSALITMSLHPLFQRQITQGLSPVKVMKELDRHLHSLFQNDEEARHYCTAIYLEIDIARQRIDYVNAGHPPALWQDDSGTQHLLHATSPPIGMFEDLEFQSSSLSYTEDGRLLLYTDGVMDPTASCYLFDLLKDHPDSPIADLKEKILTSLQHQKEAHHKSDDECFILVDVK
notes: RsbP serine phosphatase, Bacillus subtilis; called full-length in the results and discussion; predicted monomer mass of the His-tagged protein 48,325; also called WT
On to B1, for which the stoichiometry N (commonly the number of molecules, sites or subunits per partner or assembly) came out at 4.

B2: His-tagged RsbP-F55A (natural protein, Bacillus subtilis, UniProt O07014 1-403, looked up)
chain: MDKQLNDAPCGFLALSEEGSIIAANRTLIKILDYEPEQVIGQHMNMMLTIPAQLACQLYFFPLLKLEHHIEEIYISLKARDGEEIPVLINAIARHDSGASVFDCVLIPMRKRNEYENELLIARNEAQEALLAKQKANAELEIALETLKAKQEELLEINKQNQQFKLNTKRELELARKIQKNSLTEPIVNDQVQIDSYYNASSELSGDLYGYYQIDEHRYGIIILDVMGHGISSALITMSLHPLFQRQITQGLSPVKVMKELDRHLHSLFQNDEEARHYCTAIYLEIDIARQRIDYVNAGHPPALWQDDSGTQHLLHATSPPIGMFEDLEFQSSSLSYTEDGRLLLYTDGVMDPTASCYLFDLLKDHPDSPIADLKEKILTSLQHQKEAHHKSDDECFILVDVK
notes: RsbP serine phosphatase, Bacillus subtilis, with F55A
For B2, the binding result is “binds”.
